Literature values, collected in article PMC8811192.
Like-named read-outs stand apart in the source and are kept apart here.

Experiments:
OrxA (Homo sapiens) [1] = biological target: OrxA (Homo sapiens) (UniProt O43612)
OrxA (Homo sapiens) [2] = biological target: OrxA (Homo sapiens) (UniProt O43612); remark: listed apart in the source
OrxB (Homo sapiens) = OrxB (Homo sapiens) (UniProt O43612)

| Substance | Kd (OrxA (Homo sapiens) [1]) | Kd (OrxA (Homo sapiens) [2]) | Kd (OrxB (Homo sapiens)) |
| --- | --- | --- | --- |
| OrxR1 (from UniProt O43613) | 25 nM |  |  |
| OrxR2 (from UniProt O43614) |  | 40 nM | 40 nM |
